Measured values: the supplement of paper PMC10567573

B1: STX5 (parent)
chain: ESTIVELGSIFQQLAHMVKEQEET
B2: CCND2 (parent)
chain: YFKCVQKDIQPYMRRMVATWMLEV

Variants of: B1
Test: protein stability index of a GFP-peptide fusion (GPS, HEK-293T) (PSI 1-6); higher = more stable
Details: c terminus: a fixed tail appended
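Note: lentivirally expressed fusions sorted by FACS into six bins by GFP to DsRed ratio, PSI derived from sequencing read proportions per bin multiplied by bin number.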

Protein stability index of substitutions, site by site:
V18: S 4.14
I4: N 3.05
M17: F 2.46 | P 4.59
E6: C 2.06
S9: C 1.63 | L 1.71
Q13: H 2.43 | F 1.57
T24: W 2.89 | D 1.89
G8: R 1.84
I10: M 2.6
H16: K 2.27
V5: K 3.1 | Q 2.07
Q21: R 1.36 | A 1.67
T3: Q 3.88
S2: R 1.25 | H 1.92
L7: Y 3.97
E23: R 1.77 | Y 1.2
E1: H 1.27

Variants of: B2
Test: as above
Details: c terminus: a fixed tail appended

Protein stability index of substitutions, site by site:
E23: D 2.08 | V 2.73 | C 2.61 | L 3.11 | K 2.31 | T 2.88 | F 2.5 | W 3.1 | P 3.09 | M 2.9 | S 3.08 | N 2.39 | G 3.51 | I 3.03 | Y 3.34 | H 2.28 | A 1.78 | R 2.96 | Q 2.13
T19: H 3.25 | G 2.5 | A 3.42 | F 2.85 | P 1.41 | Y 3.88 | M 1.84 | V 2.61 | K 3 | R 1.58 | E 1.44 | N 3.9 | I 2.75 | Q 1.75 | D 1.97 | S 2.83 | W 2.88
V24: S 2.97 | D 1.56 | M 2.09 | Q 2.5 | C 1.93 | G 2.9 | L 2.68 | K 1.63 | F 3.08 | I 3.24 | H 1.94 | W 1.91 | A 2.41 | R 2.65 | Y 2.06 | T 1.9 | E 2.42 | P 1.91
A18: D 2.37 | L 3.85 | H 2.17 | N 3.36 | F 3.1 | T 3.65 | R 4.17 | K 2.69 | Q 3.45 | P 2.96 | E 3.2 | W 2.98 | Y 4.28 | C 1.44
L22: N 1.65 | P 1.63 | W 2.6 | D 1.89 | C 2.25 | R 1.96 | K 2.34 | V 2.94 | H 1.59 | E 1.74 | Q 1.96 | S 2.72 | T 3 | F 4.78 | G 2.07 | A 3.01 | I 2.61 | Y 2
W20: G 1.95 | P 2.58 | Y 3.49 | N 1.24 | S 2 | C 3.44 | K 1.84 | E 3.61 | T 2.18 | Q 2.61 | F 2.34 | V 3.41 | A 2.36 | H 2.88 | I 2.57 | D 1.63 | R 2.17 | L 4.58
V17: F 2.44 | S 1.77 | L 2.28 | N 2.15 | E 2.49 | D 3.18 | T 3.15 | R 3.03 | H 3.14 | C 3.2 | Q 2.63 | K 2.5 | I 2.65 | W 4.01 | P 2.44 | M 2 | A 1.55 | G 3.39
M21: N 2.54 | E 2.72 | G 2.52 | D 2.43 | S 3.49 | R 1.86 | L 1.76 | A 1.67 | I 2.58 | F 1.96 | K 3.19 | H 2.08 | Q 1.76 | P 2.24 | W 4.25 | V 2.55 | C 3.87
M16: Y 2.41 | V 2.3 | T 3.51
